For 27 sequences, protein stability index results are on record in the supplement of paper PMC9732359.

± gives the uncertainty stated by the source.

The nature of the data set: protein stability index of a GFP-peptide fusion (yeast GPS) (PSI 1-4); higher = more stable; sorted into four equal gates, so the index is relative within each strain. In short, it runs like this:
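Mid-log yeast cultures in leucine-free medium, carrying a pooled plasmid library, were sorted into four equal gates by their GFP/Cherry fluorescence ratio. Each plasmid expressed Cherry along with GFP fused upstream of a tiled 17-residue yeast protein peptide. Plasmids recovered from each gate were PCR-amplified and Illumina-sequenced, with reads assigned to strains by barcodes. The protein stability index was obtained by summing each gate's read frequency weighted by its gate number.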

With ETSGVTTALLKDEEIEK [MED8], the protein stability index runs as follows: (doa10∆) 3.2 ± 0.097; (pdr5∆) 3.05 ± 0.18; (san1∆) 2.84 ± 0.17; (ubr1∆) 3.63 ± 0.11.

For FKQSNSETFLQFYVKRW [CDC53], the protein stability index runs as follows: (doa10∆) 2.93 ± 0.13; (pdr5∆) 2.96 ± 0.071; (san1∆) 2.96 ± 0.097; (ubr1∆) 2.76 ± 0.1.

For the sequence ELVKAHLGERAASVIGM [RPC82], the protein stability index by setting is: (doa10∆) 2.55 ± 0.29; (pdr5∆) 2.77 ± 0.28; (san1∆) 2.57 ± 0.22; (ubr1∆) 2.52 ± 0.086.

Take KDNAIYNGFIDIFSNLS [YCS4]: the protein stability index (doa10∆) was found to be 2.85 ± 0.076, the protein stability index (pdr5∆) came out at 2.72 ± 0.081, the protein stability index (san1∆) was determined as 2.87 ± 0.07 and the protein stability index (ubr1∆) came out at 2.77 ± 0.047.

As to MEKLDAKLNHLKKLEKF [SWI3], the protein stability index by setting is: (doa10∆) 2.81 ± 0.13; (pdr5∆) 2.7 ± 0.1; (san1∆) 3.02 ± 0.12.

In the case of ETQFKLSRPYKALKTNI [CDC53], the protein stability index runs as follows: (doa10∆) 2.19 ± 0.045; (pdr5∆) 2.39 ± 0.051; (san1∆) 2.23 ± 0.05; (ubr1∆) 2.45 ± 0.052.

Take AGASPMVNTQQPIVTGT [PRE4]: the protein stability index came to 2.67 ± 0.17 (doa10∆) and 2.67 ± 0.29 (pdr5∆).

Take LARACAAQTNATFLKLA [RPT5]: the protein stability index (doa10∆) was 2.76 ± 0.13, the protein stability index (pdr5∆) stood at 2.93 ± 0.089, the protein stability index (san1∆) came to 2.93 ± 0.099 and the protein stability index (ubr1∆) is 2.6 ± 0.27.

With EDLKNFIFQIIEITNSN [SRB8], the protein stability index amounted to 1.96 ± 0.075 (doa10∆), 2.1 ± 0.056 (pdr5∆), 2.23 ± 0.086 (san1∆) and 1.79 ± 0.05 (ubr1∆).

As for NALHTERLHELKKLQSD [SMC1], the protein stability index by setting is: (doa10∆) 3.59 ± 0.078; (pdr5∆) 3.38 ± 0.12; (san1∆) 3.18 ± 0.095; (ubr1∆) 3.48 ± 0.1.

As to HVDSLIEDFVDGIANSK [SRB7], the protein stability index by setting is: (doa10∆) 3.06 ± 0.1; (pdr5∆) 3.3 ± 0.077; (san1∆) 3.04 ± 0.059; (ubr1∆) 3.08 ± 0.057.

For the sequence PSGAKKVISSDARGVIG [RPL2A], the protein stability index is, setting by setting: (doa10∆) 2.88 ± 0.072; (pdr5∆) 3.13 ± 0.066; (san1∆) 2.9 ± 0.076; (ubr1∆) 3.04 ± 0.077.

In the case of EVVEAVTVVDTPPVVVV [RPL3], the protein stability index (doa10∆) worked out at 1.36 ± 0.05, the protein stability index (pdr5∆) worked out at 1.67 ± 0.05, the protein stability index (san1∆) was found to be 1.48 ± 0.095 and the protein stability index (ubr1∆) came to 1.47 ± 0.036.

For the sequence HEIYGSMPLEQLIPIIL [SRB4], the protein stability index came to 2.06 ± 0.06 (doa10∆), 2.08 ± 0.068 (pdr5∆), 2.37 ± 0.08 (san1∆) and 1.72 ± 0.059 (ubr1∆).

Turning to PHELTESVLPAARYDYA [QCR2], the protein stability index reads like this: (doa10∆) 2.22 ± 0.061; (pdr5∆) 1.92 ± 0.046; (san1∆) 2.09 ± 0.081; (ubr1∆) 1.92 ± 0.044.

As to QNVAGDKTAVKLDTEVK [SWP82], the protein stability index (ubr1∆) stood at 3.32 ± 0.089.

GELGEIRALQPKLKEGA [YIL149C/MLP2]: the protein stability index is, setting by setting: (doa10∆) 3.15 ± 0.11; (pdr5∆) 3.34 ± 0.19; (san1∆) 2.81 ± 0.15; (ubr1∆) 3.36 ± 0.093.

In the case of PSTGFKFSLPFEQKGSQ [YLR335W/NUP2], the protein stability index is 2.99 ± 0.11 (doa10∆), 2.94 ± 0.088 (pdr5∆), 3.07 ± 0.087 (san1∆) and 2.96 ± 0.096 (ubr1∆).

As to EARLPSQVVWIRRLRVL [RPL19A], the protein stability index runs as follows: (doa10∆) 1.31 ± 0.072; (pdr5∆) 1.63 ± 0.078; (san1∆) 1.33 ± 0.11; (ubr1∆) 1.44 ± 0.075.

Turning to IAGHDEFNGFSLYQVDP [PRE8], the protein stability index is, setting by setting: (doa10∆) 3.15 ± 0.09; (pdr5∆) 3.31 ± 0.15; (san1∆) 3.21 ± 0.11; (ubr1∆) 2.94 ± 0.095.

For KEENDEGLSAQIAFDLV [RPN2], the protein stability index (doa10∆) was 3.4 ± 0.14, the protein stability index (pdr5∆) stood at 3.56 ± 0.098, the protein stability index (san1∆) was determined as 3.44 ± 0.076 and the protein stability index (ubr1∆) is 3.33 ± 0.055.

QTSRGLFGNNNTNNINN [YGL172W/NUP49] had a protein stability index (doa10∆) of 3.1 ± 0.18, a protein stability index (pdr5∆) of 3.04 ± 0.13, a protein stability index (san1∆) of 3.13 ± 0.16 and a protein stability index (ubr1∆) of 3.14 ± 0.16.

On to GMIYNKLFVSKEHAPYT [FAS2], for which the protein stability index worked out at 3.12 ± 0.091 (doa10∆), 2.2 ± 0.092 (pdr5∆), 2.24 ± 0.17 (san1∆) and 2.41 ± 0.1 (ubr1∆).

For GKQAIGAIAYNQFKRID [RET1], the protein stability index (doa10∆) came to 2.27 ± 0.2 and the protein stability index (ubr1∆) was 2.28 ± 0.14.

For the sequence IPSSYIKRTDEGGEAEF [ARP7], the protein stability index (doa10∆) turned out to be 3.4 ± 0.16, the protein stability index (pdr5∆) is 3.14 ± 0.1, the protein stability index (san1∆) is 3.16 ± 0.11 and the protein stability index (ubr1∆) was 3.45 ± 0.051.

Regarding QSSRVVSLSQLLFIVGQ [YCS4], the protein stability index was found to be 1.75 ± 0.063 (doa10∆), 1.33 ± 0.048 (pdr5∆), 1.83 ± 0.11 (san1∆) and 1.4 ± 0.054 (ubr1∆).

As to VAALALLFAINSYQPSP [SMC1], the protein stability index runs as follows: (doa10∆) 1.62 ± 0.059; (pdr5∆) 1.55 ± 0.073; (san1∆) 1.89 ± 0.11; (ubr1∆) 2.42 ± 0.055.
